From patent US20090042805A1

Biological target: other caspases
Test: cell-based or functional assay

B1: Ac-VDVAD-cho (peptide)
peptide: Ac-VDVAD-aldehyde
With B1 the inhibition of the cleavage of AMC substrates by human recombinant caspases (cross-reaction) was under 20%.
